From the RNAGym collection of RNA variant scans (doi:10.1093/molbev/msab373)

B1: Azoarcus group I ribozyme (parent)
chain: GUGCCUUGCGCCGGGAAACCACGCAAGGGAUGGUGUCAAAUUCGGCGAAACCUAAGCGCCCGCCCGGGCGUAUGGCAACGCCGAGCCAAGCUUCGGCGCCUGCGCCGAUGAAGGUGUAGAGACUAGACGGCACCCACCUAAGGCAAACGCUAUGGUGAAGGCAUAGUCCAGGGAGUGGCGAAAGUCACACAAACCGG

Variants of: B1
Assay: reverse-splicing fitness (ratio to wild type); higher = more active; in vitro selection; Mg2+ level not given
How it was run: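 An in vitro group I ribozyme library with randomized positions was T7-transcribed and gel-purified. In triplicate, 10 pmol RNA in EPPS pH 7.5 was reacted with 50 pmoles of a 30-nt RNA substrate for 1 h at 37 °C across several added MgCl2 levels (1–48 mM), then stopped with EDTA. Products were reverse transcribed from a substrate-complementary primer, PCR-amplified and sequenced (HiSeq 4000). Fitness is a variant's read proportion after selection over that before, normalised to wild type.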

Variant | reverse-splicing fitness
C82U A111C A145U C150A C169U U176G | 0.00805
C82U A111C A145U C150A C169U U176A | 0.0193
C82U A111C A145U C150A C169U U176C | 0.013
C82U A111C A145U C169A U176C | 0.0139
C82U A111C A145U C169A U176A | 0.0129
C82U A111C A145U C169A U176G | 0.00703
C82U A111C A145U C150A C169A U176A | 0.0124
C82U A111C A145U C150A C169A U176C | 0.0128
C82U A111C A145U C150A C169A U176G | 0.00756
C82U A111C A145G C150G C169A U176A | 0.0123
C82U A111C A145G C150G C169A U176G | 0.0072
C82U A111C A145G C150G C169A U176C | 0.0111
C82U A111C A145U C169G | 0.0103
C82U A111C A145U C169U | 0.0114
C82U A111C A145U C169A | 0.00715
C82U A111C A120U C150A U176C | 0.00573
C82U A111C A120U C150A U176A | 0.00441
C82U A111C A120U C150A U176G | 0.00295
C82U A111C A120U C150A C169A U176G | 0.00303
C82U A111C A120U C150A C169A U176C | 0.00354
C82U A111C A120U C150A C169A U176A | 0.00438
C82U A111C A145U C150A U176G | 0.00817
C82U A111C A145U C150A U176C | 0.022
C82U A111C A145U C150A U176A | 0.0153

Variant | reverse-splicing fitness
C82U A111C A145C C169G | 0.00983
C82U A111C A145C C169A | 0.00714
C82U A111C A145C C169U | 0.0113
C82U A111C C150G | 0.0163
C82U A111C C150A | 0.0255
C82U A111C C150U | 0.123
C82U A111C C150A U176C | 0.0276
C82U A111C C150A U176G | 0.00812
C82U A111C C150A U176A | 0.0143
C82U A111C A120U C150A C169U U176C | 0.0037
C82U A111C A120U C150A C169U U176A | 0.00699
C82U A111C A120U C150A C169U U176G | 0.00241
C82U A111C A145G C150U C169G U176A | 0.0107
C82U A111C A145G C150U C169G U176G | 0.00674
C82U A111C A145G C150U C169G U176C | 0.0158
C82U A111C A120U A145U C150U C169G U176A | 0.00231
C82U A111C A120U A145U C150U C169G U176C | 0.00305
C82U A111C A120U A145U C150U C169G U176G | 0.00201
C82U A111C A145C C150A U176G | 0.00685
C82U A111C A145C C150A U176A | 0.0114
C82U A111C A145C C150A U176C | 0.0145
C82U A111C A145G C169G U176G | 0.00682
C82U A111C A145G C169G U176C | 0.0306
C82U A111C A145G C169G U176A | 0.0236

Variant | reverse-splicing fitness
C82U A111C C150A C169U | 0.0106
C82U A111C C150A C169G | 0.00852
C82U A111C C150A C169A | 0.00994
C82U A111C A120U C169U U176A | 0.0057
C82U A111C A120U C169U U176C | 0.00419
C82U A111C A120U C169U U176G | 0.00178
C82U A111C A120U C150U C169U U176A | 0.00612
C82U A111C A120U C150U C169U U176G | 0.00197
C82U A111C A120U C150U C169U U176C | 0.00387
C82U A111C A145G C150A C169A | 0.0093
C82U A111C A145G C150A C169U | 0.0103
C82U A111C A145G C150A C169G | 0.00813
C82U A111C A145U C150G C169G U176C | 0.00532
C82U A111C A145U C150G C169G U176G | 0.00703
C82U A111C A145U C150G C169G U176A | 0.00648
C82U A111C A145G C150A | 0.0325
C82U A111C A145G C150G | 0.0275
C82U A111C A145G C150U | 0.183
C82U A111C A145U C150G U176G | 0.00446
C82U A111C A145U C150G U176A | 0.0108
C82U A111C A145U C150G U176C | 0.0156
C82U A111C A145C U176G | 0.0186
C82U A111C A145C U176A | 0.0676
C82U A111C A145C U176C | 0.0915

Variant | reverse-splicing fitness
C82U A111C C150U C169A U176G | 0.008
C82U A111C C150U C169A U176C | 0.0134
C82U A111C C150U C169A U176A | 0.0124
C82U A111C A145G C150U U176C | 0.085
C82U A111C A145G C150U U176A | 0.0576
C82U A111C A145G C150U U176G | 0.0161
C82U A111C A145G C150G C169G U176G | 0.00571
C82U A111C A145G C150G C169G U176A | 0.00912
C82U A111C A145G C150G C169G U176C | 0.0117
C82U A111C A145G C150U C169A | 0.00963
C82U A111C A145G C150U C169U | 0.00955
C82U A111C A145G C150U C169G | 0.00802
C82U A111C A120U C150G C169A U176G | 0.00261
C82U A111C A120U C150G C169A U176A | 0.00624
C82U A111C A120U C150G C169A U176C | 0.00467
C82U A111C A120U A145U C150U | 0.0186
C82U A111C A120U A145U C150G U176G | 0.00316
C82U A111C A120U A145U C150G U176A | 0.00354
C82U A111C A120U A145U C150G U176C | 0.00509
C82U A111C C150G U176G | 0.00363
C82U A111C C150G U176A | 0.00801
C82U A111C C150G U176C | 0.0147
C82U A111C C150G C169A | 0.00807
C82U A111C C150G C169G | 0.00661

Variant | reverse-splicing fitness
C82U A111C C150G C169U | 0.00902
C82U A111C A120U A145U C150G C169U | 0.00311
C82U A111C A145U C169U U176G | 0.00634
C82U A111C A145U C169U U176C | 0.0143
C82U A111C A145U C169U U176A | 0.0163
C82U A111C A145U C150A C169G | 0.00682
C82U A111C A145U C150A C169A | 0.00884
C82U A111C A145U C150A C169U | 0.0103
C82U A111C A145C C150G C169A | 0.00742
C82U A111C A145C C150G C169U | 0.00936
C82U A111C A145C C150G C169G | 0.00696
C82U A111C A145C C169U U176C | 0.0113
C82U A111C A145C C169U U176A | 0.0157
C82U A111C A145C C169U U176G | 0.00632
C82U A111C A145U | 0.246
C82U A111C A145G | 0.266
C82U A111C A145C | 0.239
C82U A111C A145C C150G C169G U176G | 0.0058
C82U A111C A145C C150G C169G U176A | 0.00798
C82U A111C A145C C150G C169G U176C | 0.00811
C82U A111C A145U U176C | 0.103
C82U A111C A145U U176G | 0.0238
C82U A111C A145U U176A | 0.0808
C82U A111C A120U U176C | 0.0103

Variant | reverse-splicing fitness
C82U A111C A120U U176G | 0.00301
C82U A111C A120U U176A | 0.00719
C82U A111C A145C C169A U176G | 0.00613
C82U A111C A145C C169A U176C | 0.00939
C82U A111C A145C C169A U176A | 0.0127
C82U A111C A120U A145U C169U U176G | 0.00166
C82U A111C A120U A145U C169U U176A | 0.00256
C82U A111C A120U A145U C169U U176C | 0.00255
C82U A111C A120U C169G U176G | 0.00177
C82U A111C A120U C169G U176C | 0.0039
C82U A111C A120U C169G U176A | 0.0032
C82U A111C A145U C150A | 0.0231
C82U A111C A145U C150G | 0.0215
C82U A111C A145U C150U | 0.148
C82U A111C A120U A145U U176G | 0.00361
C82U A111C A120U A145U U176A | 0.00693
C82U A111C A120U A145U U176C | 0.0113
C82U A111C A145U C169G U176G | 0.00667
C82U A111C A145U C169G U176A | 0.0145
C82U A111C A145U C169G U176C | 0.0162
C82U A111C A145U C150U C169U U176A | 0.0154
C82U A111C A145U C150U C169U U176C | 0.0136
C82U A111C A145U C150U C169U U176G | 0.00669
C82U A111C A145G C150G C169U U176G | 0.0073

Variant | reverse-splicing fitness
C82U A111C A145G C150G C169U U176C | 0.00994
C82U A111C A145G C150G C169U U176A | 0.0102
C82U A111C A120U C169G | 0.00401
C82U A111C A120U C169A | 0.00322
C82U A111C A120U C169U | 0.00529
C82U A111C A120U C150U C169G U176C | 0.00314
C82U A111C A120U C150U C169G U176G | 0.00228
C82U A111C A120U C150U C169G U176A | 0.00387
C82U A111C A145G C150A U176A | 0.0169
C82U A111C A145G C150A U176G | 0.00984
C82U A111C A145G C150A U176C | 0.0313
C82U A111C A120U C150A C169G U176A | 0.00492
C82U A111C A120U C150A C169G U176C | 0.00392
C82U A111C A120U C150A C169G U176G | 0.00237
C82U A111C A120U C150U U176G | 0.00332
C82U A111C A120U C150U U176C | 0.00907
C82U A111C A120U C150U U176A | 0.00642
C82U A111C C150G C169G U176G | 0.00523
C82U A111C C150G C169G U176A | 0.00576
C82U A111C C150G C169G U176C | 0.00488
C82U A111C A120U A145U C169G U176A | 0.00259
C82U A111C A120U A145U C169G U176C | 0.00286
C82U A111C A120U A145U C169G U176G | 0.00187
